± gives the standard deviation of the averaged measurements.
Experiment: total protein half-life in vivo (active degradation + dilution); higher = more stable protein
[1] = E. coli NCM3722 delta-clpP delta-lon delta-hslV, growth: N-lim chemostat, doubling time 6 h
[2] = E. coli NCM3722 delta-clpP, growth: N-lim chemostat, doubling time 6 h
[3] = E. coli NCM3722 delta-hslV, growth: N-lim chemostat, doubling time 6 h
[4] = E. coli NCM3722 delta-lon, growth: N-lim chemostat, doubling time 6 h
[5] = E. coli NCM3722 delta-smpB, growth: N-lim chemostat, doubling time 6 h
[6] = wild type E. coli NCM3722, growth: C-lim chemostat, doubling time 3 h
[7] = wild type E. coli NCM3722, growth: C-lim chemostat, doubling time 6 h
[8] = wild type E. coli NCM3722, growth: C-lim chemostat, doubling time 12 h
[9] = wild type E. coli NCM3722, growth: N-lim chemostat, doubling time 6 h
[10] = wild type E. coli NCM3722, growth: N-lim chemostat, doubling time 12 h
[11] = wild type E. coli NCM3722, growth: P-lim chemostat, doubling time 6 h
[12] = wild type E. coli NCM3722, growth: P-lim chemostat, doubling time 12 h

Sequence | total protein half-life in vivo [1] [h] | total protein half-life in vivo [2] [h] | total protein half-life in vivo [3] [h] | total protein half-life in vivo [4] [h] | total protein half-life in vivo [5] [h] | total protein half-life in vivo [6] [h] | total protein half-life in vivo [7] [h] | total protein half-life in vivo [8] [h] | total protein half-life in vivo [9] [h] | total protein half-life in vivo [10] [h] | total protein half-life in vivo [11] [h] | total protein half-life in vivo [12] [h]
MKQATRKPTTPGDILLYEYLEPLDLKINELAELLHVHRNSVSALINNNRKLTTEMAFRLAKVFDTTVDFWLNLQAAVDLWEVENNMRTQEELGRIETVAEYLARREERAKKVA [P0A9T6] | 5.02 ± 0.066 | 3.95 ± 0.23 | 0.853 | 0.94 | 0.895 ± 0.037 | 0.871 ± 0.018 | 0.977 ± 0.032 | 1.53 | 1.08 | 1.08 | 0.994 ± 0.08 | 1.7 ± 0.7
MKQDLARIEQFLDALWLEKNLAENTLNAYRRDLSMMVEWLHHRGLTLATAQSDDLQALLAERLEGGYKATSSARLLSAVRRLFQYLYREKFREDDPSAHLASPKLPQRLPKDLSEAQVERLLQAPLIDQPLELRDKAMLEVLYATGLRVSELVGLTMSDISLRQGVVRVIGKGNKERLVPLGEEAVYWLETYLEHGRPWLLNGVSIDVLFPSQRAQQMTRQTFWHRIKHYAVLAGIDSEKLSPHVLRHAFATHLLNHGADLRVVQMLLGHSDLSTTQIYTHVATERLRQLHQQHHPRA [P0A8P8] | 5.75 ± 1.2 | 2.02 ± 0.045 | 2.06 | 4.89 ± 0.092 | 2.04 ± 0.034 | 1.74 ± 0.27 | 3.04 ± 0.085 | 4.08 ± 0.66 | 2.31 ± 0.2 | 3.34 ± 0.29 |  | 2.81
MKQEVILVLDCGATNVRAIAVNRQGKIVARASTPNASDIAMENNTWHQWSLDAILQRFADCCRQINSELTECHIRGIAVTTFGVDGALVDKQGNLLYPIISWKCPRTAAVMDNIERLISAQRLQAISGVGAFSFNTLYKLVWLKENHPQLLERAHAWLFISSLINHRLTGEFTTDITMAGTSQMLDIQQRDFSPQILQATGIPRRLFPRLVEAGEQIGTLQNSAAAMLGLPVGIPVISAGHDTQFALFGAGAEQNEPVLSSGTWEILMVRSAQVDTSLLSQYAGSTCELDSQAGLYNPGMQWLASGVLEWVRKLFWTAETPWQMLIEEARLIAPGADGVKMQCDLLSCQNAGWQGVTLNTTRGHFYRAALEGLTAQLQRNLQMLEKIGHFKASELLLVGGGSRNTLWNQIKANMLDIPVKVLDDAETTVAGAALFGWYGVGEFNSPEEARAQIHYQYRYFYPQTEPEFIEEV | 5.11 | 3.99 ± 0.14 |  |  |  | 0.905 ± 0.18 | 2.56 | 1.49 |  |  |  | 
MKQIRLLAQYYVDLMMKLGLVRFSMLLALALVVLAIVVQMAVTMVLHGQVESIDVIRSIFFGLLITPWAVYFLSVVVEQLEESRQRLSRLVQKLEEMRERDLSLNVQLKDNIAQLNQEIAVREKAEAELQETFGQLKIEIKEREETQIQLEQQSSFLRSFLDASPDLVFYRNEDKEFSGCNRAMELLTGKSEKQLVHLKPADVYSPEAAAKVIETDEKVFRHNVSLTYEQWLDYPDGRKACFEIRKVPYYDRVGKRHGLMGFGRDITERKRYQDALERASRDKTTFISTISHELRTPLNGIVGLSRILLDTELTAEQEKYLKTIHVSAVTLGNIFNDIIDMDKMERRKVQLDNQPVDFTSFLADLENLSALQAQQKGLRFNLEPTLPLPHQVITDGTRLRQILWNLISNAVKFTQQGQVTVRVRYDEGDMLHFEVEDSGIGIPQDELDKIFAMYYQVKDSHGGKPATGTGIGLAVSRRLAKNMGGDITVTSEQGKGSTFTLTIHAPSVAEEVDDAFDEDDMPLPALNVLLVEDIELNVIVARSVLEKLGNSVDVAMTGKAALEMFKPGEYDLVLLDIQLPDMTGLDISRELTKRYPREDLPPLVALTANVLKDKQEYLNAGMDDVLSKPLSVPALTAMIKKFWDTQDDEESTVTTEENSKSEALLDIPMLEQYLELVGPKLITDGLAVFEKMMPGYVSVLESNLTAQDKKGIVEEGHKIKGAAGSVGLRHLQQLGQQIQSPDLPAWEDNVGEWIEEMKEEWRHDVEVLKAWVAKATKK [P0AEC3] | 5.863 ± 0.04 | 6.27 ± 0.077 | 5.797 ± 0.042 | 5.21 ± 0.38 | 5.568 ± 0.012 | 3.09 ± 0.14 | 5.88 ± 0.086 | 10.9 ± 0.17 | 5.54 ± 0.18 | 10.5 ± 1 | 5.69 ± 0.2 | 11.4 ± 0.22
MKQLWFAMSLVTGSLLFSANASATPASGALLQQMNLASQSLNYELSFISINKQGVESLRYRHARLDNRPLAQLLQMDGPRREVVQRGNEISYFEPGLEPFTLNGDYIVDSLPSLIYTDFKRLSPYYDFISVGRTRIADRLCEVIRVVARDGTRYSYIVWMDTESKLPMRVDLLDRDGETLEQFRVIAFNVNQDISSSMQTLAKANLPPLLSVPVGEKAKFSWTPTWLPQGFSEVSSSRRPLPTMDNMPIESRLYSDGLFSFSVNVNRATPSSTDQMLRTGRRTVSTSVRDNAEITIVGELPPQTAKRIAENIKFGAAQ [P0AFX9] |  | 6.16 ± 0.25 | 6.13 ± 0.069 | 5.896 ± 0.045 | 5.8 ± 0.49 | 2.96 ± 0.22 | 6.16 ± 0.61 | 10.4 ± 0.19 | 6.73 ± 0.14 | 13.2 ± 1.5 | 5.88 ± 0.69 | 12 ± 0.74
MKQPAPVYQRIAGHQWRHIWLSGDIHGCLEQLRRKLWHCRFDPWRDLLISVGDVIDRGPQSLRCLQLLEQHWVCAVRGNHEQMAMDALASQQMSLWLMNGGDWFIALADNQQKQAKTALEKCQHLPFILEVHSRTGKHVIAHADYPDDVYEWQKDVDLHQVLWSRSRLGERQKGQGITGADHFWFGHTPLRHRVDIGNLHYIDTGAVFGGELTLVQLQ |  |  |  |  |  |  |  |  |  |  |  | 5.48
